Measured values reported in patent US20100305034A1 (UNIVERSITY OF BRISTOL, published 2010).

Molecular target: the molecule itself
Experiment: Western blot of conditioned media from transfected HEK293 cells
Experimental: Full length VEGF₁₆₅b or VEGF₁₆₅ (generated by PCR from tissue) was cloned into the expression vector pcDNA₃ using standard methodology, and then transfected into HEK 293 cells and a stable cell line generated using Geneticin selection. Confluent cells were incubated in basal M200 endothelial cell medium for 48 hours, containing neither serum nor Geneticin, and the conditioned media assayed for VEGF concentration using a pan VEGF ELISA(R&D). Control conditioned media (pcDNA3-CM) was collected in the same way from HEK293 cells stably transfected with pcDNA₃. […] VEGF₁₆₅b was the same molecular weight as VEGF₁₆₅, and both isoforms correspond to previously published molecular weights for VEGF₁₆₅ (Ferrara N et al Biophys. Res. Comm. 1989; 161: 851-8). […] This is probably due to the fact that commercially available VEGF₁₆₅ is not glycosylated. There was some VEGF₁₆₅b and VEGF₁₆₅ in the conditioned media that appeared to be de-glycosylated, but this was a small fraction of the total VEGF.

B1: VEGF165b (recombinant, produced by transfected HEK293 cells) (ligand)
chain: APMAEGGGQNHHEVVKFMDVYQRSYCHPIETLVDIFQEYPDEIEYIFKPSCVPLMRCGGCCNDEGLECVPTEESNITMQIMRIKPHQGQHIGEMSFLQHNKCECRPKKDRARQENPCGPCSERRKHLFVQDPQTCKCSCKNTDSRCKARQLELNERTCRSLTRKD
notes: Secreted into conditioned medium of HEK293 cells stably transfected with pcDNA3-VEGF165b; mostly glycosylated (about 23 kDa); also called VEGF165b-CM; new isoform VEGF165b
binding result: binds
